Reference: IntAct's records for PubMed 11733528

B1: Early protein (Human adenovirus C serotype 5 (HAdV-5)), P03255-2 (parent)
chain: MRHIICHGGVITEEMAASLLDQLIEEVLADNLPPPSHFEPPTLHELYDLDVTAPEDPNEEAVSQIFPDSVMLAVQEGIDLLTFPPAPGSPEPPHLSRQPEQPEQRALGPVSMPNLVPEVIDLTCHEAGFPPSDDEDEEGPVSEPEPEPEPEPEPARPTRRPKMAPAILRRPTSPVSRECNSSTDSCDSGPSNTPPEIHPVVPLCPIKPVAVRVGGRRQAVECIEDLLNEPGQPLDLSCKRPRP
partner: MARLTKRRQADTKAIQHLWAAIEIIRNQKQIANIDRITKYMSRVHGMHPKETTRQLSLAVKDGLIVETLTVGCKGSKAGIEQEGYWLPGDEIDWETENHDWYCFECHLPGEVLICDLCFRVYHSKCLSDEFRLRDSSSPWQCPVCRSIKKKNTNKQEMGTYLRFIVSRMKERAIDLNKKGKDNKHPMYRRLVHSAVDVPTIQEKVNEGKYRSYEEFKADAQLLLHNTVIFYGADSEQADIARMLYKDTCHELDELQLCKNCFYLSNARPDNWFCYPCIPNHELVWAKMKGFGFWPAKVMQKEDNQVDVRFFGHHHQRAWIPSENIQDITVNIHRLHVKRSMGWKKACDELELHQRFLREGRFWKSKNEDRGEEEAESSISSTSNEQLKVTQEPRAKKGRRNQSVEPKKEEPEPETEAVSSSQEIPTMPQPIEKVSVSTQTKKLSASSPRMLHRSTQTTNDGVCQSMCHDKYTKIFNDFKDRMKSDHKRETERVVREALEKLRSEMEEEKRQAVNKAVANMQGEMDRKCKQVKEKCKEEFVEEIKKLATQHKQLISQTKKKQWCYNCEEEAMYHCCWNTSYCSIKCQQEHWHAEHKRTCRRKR

Variants of: B1
Settings: with zmy11_human ZMYND11, Q15326

Variant | effect of a mutation on the interaction
L115A | disrupting interaction
